Experimental data as given in patent publication US9968687B2, “Anti-DLL3 antibody drug conjugates” (AbbVie Stemcentrx LLC, priority 2013, dated 2018).
Positions count from the first letter of the chain named.

T1: murine DLL3 (Mus musculus, UniProt O88516)
T1 construct: expressed in transfected cells; host or cells: 293 (HEK-293T) cells
T1 sequence (O88516 33-585 isoform O88516-2 limits assumed): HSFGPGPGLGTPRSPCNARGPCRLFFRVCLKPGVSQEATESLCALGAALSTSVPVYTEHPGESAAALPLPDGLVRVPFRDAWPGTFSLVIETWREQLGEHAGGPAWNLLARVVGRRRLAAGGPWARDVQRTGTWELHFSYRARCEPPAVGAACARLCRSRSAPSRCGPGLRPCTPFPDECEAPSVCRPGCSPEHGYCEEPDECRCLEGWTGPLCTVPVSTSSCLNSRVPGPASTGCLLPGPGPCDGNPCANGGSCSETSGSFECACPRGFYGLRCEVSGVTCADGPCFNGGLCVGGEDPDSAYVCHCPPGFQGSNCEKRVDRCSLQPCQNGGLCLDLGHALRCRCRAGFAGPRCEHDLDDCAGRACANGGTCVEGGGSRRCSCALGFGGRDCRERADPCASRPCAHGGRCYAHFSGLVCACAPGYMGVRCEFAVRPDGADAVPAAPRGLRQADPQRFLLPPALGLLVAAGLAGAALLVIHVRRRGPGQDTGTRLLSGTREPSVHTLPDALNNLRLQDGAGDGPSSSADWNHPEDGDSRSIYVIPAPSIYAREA

T2: human DLL3 antigen (Homo sapiens, UniProt Q9NYJ7)
T2 sequence (Q9NYJ7 27-618): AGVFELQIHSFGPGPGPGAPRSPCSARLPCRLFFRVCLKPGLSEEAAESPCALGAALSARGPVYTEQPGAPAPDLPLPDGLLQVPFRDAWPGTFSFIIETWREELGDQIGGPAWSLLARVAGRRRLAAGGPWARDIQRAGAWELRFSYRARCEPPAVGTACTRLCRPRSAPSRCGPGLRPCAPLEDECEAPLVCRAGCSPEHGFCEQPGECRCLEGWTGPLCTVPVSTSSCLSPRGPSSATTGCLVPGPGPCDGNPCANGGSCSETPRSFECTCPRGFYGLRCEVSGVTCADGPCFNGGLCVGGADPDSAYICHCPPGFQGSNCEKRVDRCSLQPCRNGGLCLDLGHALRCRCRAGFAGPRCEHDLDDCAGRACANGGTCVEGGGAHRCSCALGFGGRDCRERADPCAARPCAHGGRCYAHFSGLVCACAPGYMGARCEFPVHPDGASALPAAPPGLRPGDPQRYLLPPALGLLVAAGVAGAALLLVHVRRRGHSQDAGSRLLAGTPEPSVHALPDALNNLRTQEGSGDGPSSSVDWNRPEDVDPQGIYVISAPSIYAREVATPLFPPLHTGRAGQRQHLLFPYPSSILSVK

B1: SC16.25: murine anti-DLL3 monoclonal antibody, sequences in FIGS. 3A and 3B (antibody, V domains shown)
VL: QIVLTQSPAIMSASPGEKVTMTCSASSSVSYMHWYQQKSGTSPKRWIYDSSKLASGVPARFSGSGSGTSYSLTISSMEAEDAATYYCQQWSSNPLTFGAGTKLELK
VH: QVTLKESGPGILQPSQTLSLTCSFSGFSLSTSGMGVGWIRQPSGEGLEWLTDIWWDDNKYYNPSLKSRLTISKDTSSNQVFLNITSVDTADTATYYCARRVNYYYDPYYAMDYWGQGTSVTVSS
B2: SC16.8: murine anti-DLL3 monoclonal antibody, sequences in FIGS. 3A and 3B (antibody, V domains shown)
VL: EIQMTQSPSSMSASLGDRITITCQATQDIVKNLNWYQQKPGKPPSFLIYYAIELAEGVPSRFSGSGSGSDYSLTISNLESEDFADYYCLQFYEFPFTFGAGTKLELK
VH: QAQLQQSGAELVRPGTSVKVSCKASGYAFTNYLIEWVKQRPGQGLEWIGVINPGTGGTNYNENFKGKATLTADKSSSTAYMQLSSLTSDDSAVYFCARSPYDYHEGAMDYWGQGTSVTVSS
B3: SC16.13: murine anti-DLL3 monoclonal antibody, sequences in FIGS. 3A and 3B (antibody, V domains shown)
VL: QIVLTQSPALVSASPGEKVTMTCSASSSVSYMYWYQQKPRSSPKPWIYLTSNLASGVPARFSGSGSGTSYSLTISSMEAEDAATYYCQQWRSNPFTFGSGTKLEIK
VH: QVTLKESGPGILQPSQTLSLTCSFSGFSLSTSGMGVGWIRQPSGKGLEWLAHIWWDDVKRYNPALKSRLTISKDTSSSQVFLKIASVDTADTATYYCARIVSFDNDVVSAMDYWGQGTSVTVSS
B4: SC16.65: murine anti-DLL3 monoclonal antibody, sequences in FIGS. 3A and 3B (antibody, V domains shown)
VL: B3 VL with V11M, A25V, S26T, M77V, S92N, L103V
VH: B3 VH with H52L, T75A, V101A, F103Y, N105Y, S109Y, T121S
B5: SC16.15: murine anti-DLL3 monoclonal antibody, sequences in FIGS. 3A and 3B (antibody, V domains shown)
VL: DIQMTQSPASLAASVGETVAITCRASENIYYNLAWYQQKQGKSPQLLIYTANSLEDGVPSRFSGSGSGTQYSLKINSMQPEDSATYFCKQAYDVPPTFGGGTKLEIK
VH: QVQLQQSGAELAKPGASVKMSCKASGYTFTRYWIHWIKQRPGQGLEWIGYINPTTVYTEFNQNFKDKATLTADKSSTTASMQLSSLTSEDSAVYYCARGGSNFFDYWGQGTTLTVSS
B6: SC16.10: murine anti-DLL3 monoclonal antibody, sequences in FIGS. 3A and 3B (antibody, V domains shown)
VL: QIVLTQSPAIMSASLGERVTMTCTASSSVSSSYLHWYQQKPGSSPKLWIYSTSNLASGVPTRFSGSGSGTSYSLTISSMEAEDAATYYCHQYHRSPFTFGSGTKLEIK
VH: QVTLKESGPGILQSSQTLSLTCSFSGFSLSTSGMGVGWIRQPSGKGLEWLAHIWWDDVKRYNPVLKSRLTISKDTSSSQVFLKIASVDTADTATYYCARLVDDLYYFDYWGQGTTLTVSS
B7: SC16.4: murine anti-DLL3 monoclonal antibody; VL/VH SEQ ID NOS: 25 and 27 (antibody, listed as Mus musculus, V domains shown)
VH: QIQLVQSGPELKKPGETVKISCKASGYTFTDYSMHWVKQAPGKGLKWMGWINTETGEPGYADDFKGRFAFSLETSASTAYLQINNLKNEDTATYFCARYDGYAMDYWGQGTSVTVSS
VL: DIQMTQTTSSLSASLGDRVTISCRASQDISNYLNWYQQKPDGTVKLLIYYTSRLHSGVPSRFSGSGSGTDYSLTISNLELEDIATYFCQQGDMLPWTFGGGTKLEIK
B8: SC16.34: murine anti-DLL3 monoclonal antibody, sequences in FIGS. 3A and 3B (antibody, V domains shown)
VL: SIVMTQTPKFLLVSAGDRVTITCKASQSVSNDVAWYQQKPGQSPKLLIYYASNRYSGVPDRFTGSGYGTDFTFTISTVQAEDLAVYFCQQDYSSPWTFGGGTKLEIK
VH: QIQLVQSGPELKRPGETVKISCKASGYTFTNYGMNWVKQAPGKGLKWMGWINTYTGDPTYADDFKGRFAFSLETSASTAYLQINNLKNEDTATYFCARIGGNSPSDYWGQGTSLTVSS
B9: SC16.56: murine anti-DLL3 monoclonal antibody, sequences in FIGS. 3A and 3B (antibody, V domains shown)
VL: B8 VL with A34V, S56T, T63A, T72S, S93T, K107R
VH: B8 VH with R13K, G49A, D57E, Y80S, N84I, G101D, N102S, S113T

What follows are molecules tested against T1, murine DLL3 (assay: Flow cytometry on 293 cells over-expressing murine DLL3). Details: not given.
Assay type: binding
Description: In addition to evaluating the exemplary modulators as set forth above, flow cytometry was performed in order to confirm that selected SC16 antibody modulators can immunospecifically associate with human DLL3 and to determine whether the same antibodies cross-react with cynomolgus, rat and/or murine DLL3. More particularly the exemplary murine antibodies were analyzed by flow cytometry using a FACSCanto II and 293 cells over-expressing murine, rat, cynomolgus or human DLL3. In some cases, exemplary murine modulators were analyzed by flow cytometry using a FACSCanto II and yeast cells displaying cynomolgus DLL3 using the methods described by Cochran et al. (J Immunol Methods. 287 (1-2):147-158 (2004).
Such results are not unexpected given that murine DLL3 is approximately 83% homologous with isoform 2 of human DLL3. It will be appreciated that this cross-reactivity may be advantageously exploited in the context of the instant invention through the use of animal models in drug discovery and development.

Molecule | cross-reactivity with murine DLL3
B1 | did not appreciably associate with murine DLL3
B2 | cross-react with murine DLL3 to a greater or lesser extent
B3 | did not appreciably associate with murine DLL3
B4 | did not appreciably associate with murine DLL3
B5 | cross-react with murine DLL3 to a greater or lesser extent
B6 | did not appreciably associate with murine DLL3
B7 | cross-react with murine DLL3 to a greater or lesser extent
B8 | cross-react with murine DLL3 to a greater or lesser extent
B9 | cross-react with murine DLL3 to a greater or lesser extent

Each molecule was assayed against T2, human DLL3 antigen (assay: Surface plasmon resonance (Biacore 2000), humanized versus chimeric constructs). Details: concentration series of 25 and 12.5 nM human DLL3 antigen, 1:1 Langmuir binding model, estimated, read-out: KD of antibody binding to human DLL3 antigen.
Description: Besides the aforementioned assays, humanized constructs hSC16.13, hSC16.15, hSC16.25, hSC16.34 and hSC16.56 from Example 4 were analyzed to determine if the CDR grafting process had appreciably altered their binding characteristics. In this respect the humanized constructs (CDR grafted) were compared with “traditional” chimeric antibodies comprising the murine parent (or donor) heavy and light chain variable domains and a human constant region substantially equivalent to that used in the humanized constructs. With these constructs surface plasmon resonance (SPR) was conducted using a Biacore 2000 (GE Healthcare) to identify any subtle changes in rate constants brought about by the humanization process.
Based on a concentration series of 25 and 12.5 nM of human DLL3 antigen and using a 1:1 Langmuir binding model, the KD of the SC16.15 antibody binding to human DLL3 antigen was estimated to be 0.2 nM.

Molecule | Kd
B5 | ~0.2 nM
